Laboratory results: publication doi:10.1101/2025.11.24.690255v1
Numbering of substitutions follows the chain as printed. In names and notes the source's numbering stands.

B1: β-glucosidase B (BglB) (Paenibacillus polymyxa; N160L) (protein)
chain: MSENTFIFPATFMWGTSTSSYQIEGGTDEGGRTPSIWDTFCQIPGKVIGGDCGDVACDHFHHFKEDVQLMKQLGFLHYRFSVAWPRIMPAAGIINEEGLLFYEHLLDEIELAGLIPMLTLYHWDLPQWIEDEGGWTQRETIQHFKTYASVIMDRFGERILWWNTINEPYCASILGYGTGEHAPGHENWREAFTAAHHILMCHGIASNLHKEKGLTGKIGITLNMEHVDAASERPEDVAAAIRRDGFINRWFAEPLFNGKYPEDMVEWYGTYLNGLDFVQPGDMELIQQPGDFLGINYYTRSIIRSTNDASLLQVEQVHMEEPVTDMGWEIHPESFYKLLTRIEKDFSKGLPILITENGAAMRDELVNGQIEDTGRHGYIEEHLKACHRFIEEGGQLKGYFVWSFLDNFEWAWGYSKRFGIVHINYETQERTPKQSALWFKQMMAKNGF
B2: β-glucosidase B (BglB) (Paenibacillus polymyxa; N160S) (protein)
chain: B1 chain with L160S
B3: β-glucosidase B (BglB) (Paenibacillus polymyxa; N160C) (protein)
chain: B1 chain with L160C
B4: β-glucosidase B (BglB) (Paenibacillus polymyxa; N160M) (protein)
chain: B1 chain with L160M
B5: β-glucosidase B (BglB) (Paenibacillus polymyxa; N160G) (protein)
chain: B1 chain with L160G

Substrate: O=[N+]([O-])c1ccc(O[C@@H]2O[C@H](CO)[C@@H](O)[C@H](O)[C@H]2O)cc1
Assay: purified protein
Conditions: 0-100 mM substrate, 15 min

Row | Protein | Km [mM] | kcat [s⁻¹]
1 | B1 | 13.8 ± 1.6 | 3.245 ± 0.127
2 | B2 | 4.9 ± 0.2 | 4.527 ± 0.05
3 | B3 | 4.3 ± 0.3 | 9.147 ± 0.157
4 | B4 | 14.1 ± 1.3 | 4.162 ± 0.122
5 | B5 | 3.5 ± 0.2 | 9.81 ± 0.137
